Results taken from patent US20040208887A1 (MOLECULES OF MAN, published 2004).

B1: Fab clone 13 (Fab, V domains shown)
VH: EVQLLESGGGLVQPGRSLRLSCAASGFTFDDYGMHWVRQAPGKGLEWVSGLSWNSDNIGYADSVKGRFTISRDNAKNSLYLQMNSLKIEDTAFYYCAKAPRTLRFLEWHNVYFDLWGRGTLVTVSS
VL: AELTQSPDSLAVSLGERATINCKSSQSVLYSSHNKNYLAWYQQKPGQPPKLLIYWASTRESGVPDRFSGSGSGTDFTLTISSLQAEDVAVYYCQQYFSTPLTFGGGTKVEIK
notes: Human Fab (gamma1 Fd + kappa light chain), tested as a crude periplasmic preparation, approx. >3 ug Fab/ml
B2: Fab clone 1:8 (Fab, V domains shown)
VH: EVQLLESGGGLVEPGRSLRLSCAASGFNFGDYAIHWVRQGPGKGLEWVAGISWNSGSIGYADSVKGRFIISRDNAKKTLFLQMNTLRTEDTALYYCVKETGAQGVAGSGAYYFHNWGQGTLVTVSS
VL: AELTQSPSSLSASIGDRVTITCRASQGISNYVAWYQQRPGKVPKLLIFGASALHSGVPSRFSGSGSGTDFTLTITSLQPEDVATYYCQKYRSAPLTFGPGTRVDLK
notes: Human Fab (gamma1 Fd + kappa), crude periplasmic preparation, approx. 0.01 ug Fab/ml
B3: Fab clone 1:9 (Fab, V domains shown)
VH: EVQLLESGPGLVKPSETLSLTCTVSGNSISSGYYWVWFRQSPGKGLEWIASIYHSGSTYYNPSLRSRVSISVDTSKKQFSLKLSSVTAADTAVYYCARDSAKTTRYFVHWGQGTLVTVSS
VL: AELTQSPGTLSLSPGERATLSCRASQSVSSSYLAWYQQKAGQAPRLLIYGASRRATGIPVRFSGSGSGAEFTLTISSLQSEDSAVYYCQHYHNWPAMYTFGQGTKLEIK
notes: Human Fab (gamma1 Fd + kappa), crude periplasmic preparation, approx. 0.05 ug Fab/ml
B4: Fab clone 1:10 (Fab, V domains shown)
VH: EVQLLESGAEVKKPGESLRISCRGSGYSFPNYWVSWVRQMPGKGLEWMGKIDPSDSETNYSPSFQGHVTISADKSLSIAYLQWNSLKASDTAMYYCARHKRGAPTYKDILTGYYVDGMDVWGQGTTVTVSS
VL: AELTQSPDSLAMSLGERASINCKSSRSLLYSSNNKNYLAWYQQKSGHPPKLLIYWASTRESGVPDRFNGSGSGTDFTLTISSLQAEDVAVYFCQQYYSSPLTFGGGTKVEIK
notes: as for B2
B5: Fab clone 4:6 (Fab, V domains shown)
VH: VQLLEQSGAEVKKPGASVKVSCKASGYTFTKYYLHWVRQAPGQGLEWMGFINPSGGSTSSAQKFQGRISMTRDTSTTTVYMEVNSVTSEDTAVYYCARVGRLGVGATGAFDLWGQGTMVTVSS
VL: AELTQSPSSLSASVGDRVTITCQASQDINYSLNWYQQKPGKPPKLLIYYASHSDTGVPSRFSGGGSGTRFTLTIYSLQPEDIATYYCQHFDHVPRYTFGPGTKVDLK
notes: Tested as a human Fab (gamma1 Fd + kappa), crude periplasmic preparation, approx. 0.24 ug Fab/ml
B6: Fab clone 6a:5 (Fab, V domains shown)
VH: EVQLLESGPGLVKPSQTLSLTCAISGDNVSRKSAAWNWIRQSPSRGLEWLGRTYHMSKWYSVYATSLKSRININVDTSRNQFALQLRSVTPEDTAVYYCAREGPEWAVGGTYGMDVWGQGTTVTVSS
VL: AELTQSPDTLSLSPGERATLSCRASQSVNNNYLAWYQQKPGQAPRLLIYGASSRATGIPDRFSGSGSETDFTLTISRLEPEDFAVYYCQQYDSSRTFGQGTKVEIK
notes: Tested as a human Fab (gamma1 Fd + kappa), crude periplasmic preparation, approx. 0.33 ug Fab/ml
B7: Fab clone 2a-4 (Fab, V domains shown)
VH: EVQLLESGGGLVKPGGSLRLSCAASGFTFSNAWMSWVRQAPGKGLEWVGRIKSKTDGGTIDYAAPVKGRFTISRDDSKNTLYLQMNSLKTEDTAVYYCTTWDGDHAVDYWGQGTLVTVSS
VL: AELTQSPSSLSASIGDRVAISCQASQDIGNYLNWYQQKPGKAPRLLIYDASNLEAGVPSRFSGSGSGTDFTLTISTLQPEDFATFYCQQTDSTPYTFGQGTKLEIR
notes: Human Fab (gamma1 Fd + kappa), crude periplasmic preparation, approx. 1.0 ug Fab/ml
B8: Fab clone 2a-5 (Fab, V domains shown)
VH: EVQLLESGPGLVKPSETLSLTCTVSTGSISGYFWSWIRQPPGKGLEWIAYIHNSGNTNYNPSLRSRVTVSIDTSKNQFSLKLTSVTAADTAVYYCARDGGGWDTYLDSWGQGFLVTVSS
VL: AELTQSPSSLSASVGDRVTITCRASQTVSSYLNWYQQKPGKAPKVLIYGISTLQSGVPSRFSGSGSETDFTLTISNLQPEDFAIYYCQQSYSSRTFGQGTKVEIK
notes: Human Fab (gamma1 Fd + kappa), crude periplasmic preparation, approx. 0.44 ug Fab/ml
B9: Fab clone 2a-13 (Fab, V domains shown)
VH: EVQLLESGPGLVKPSETLSLTCTVSGGSISDYYWSWIRQPPGKGLEWIGHTYDNGGTKYNPSLKSRASISVDTSKNQVSLRLTSVTAADTAVYYCATAFLDNSGWYTFDSWGQGSLVTV
VL: AELTQSPSSVSASVRDRVTITCRASQGISTWLAWYQQKPGKAPKLLIYAASTLQSGVPSRFSGSGSGTDFTLTIGSLQPEDVATYYCQQANSFPPGALTFGGGTKVEVK
notes: Human Fab (gamma1 Fd + kappa), crude periplasmic preparation, approx. 0.36 ug Fab/ml
B10: Fab clone 2a-14 (Fab, V domains shown)
VH: VQLLEQSGGGVVQPGRSLRLSCAASGFTFSTYAMHWVRQAPGKGLEWVAVISHDGSNKFYADSVKGRFTISRDSSKNTLYLQMNSLRPGDTAVYYCSRWDRRAEYFQDWGQGTLVTVSS
VL: AELTQSPAFMSATPGDKVNISCKASQDIDDDMNWYQQKPGEAAIFIIQEATTLVPGIPPRFSGSGYGTDFTLTINNIESEDAAYYFCLQHDNFPLTFGQGTKVEIK
notes: Human Fab (gamma1 Fd + kappa), crude periplasmic preparation, approx. 0.72 ug Fab/ml
B11: Fab clone 98 (Fab, V domains shown)
VH: EVQLLEQSGAEVKKPGESLRISCRGSGYSFPNYWVSWVRQMPGKGLEWMGKIDPSDSETNYSPSFQGHVTISADKSLSIAYLQWNSLKASDTAMYHCARHKRGAPTYKDILTGYYVDGMDVWGQGTTDTVSS
VL: AELTQSPSSLSASVGDRVTITCQASPDISNYLNWYQQKPGKAPNLLIYGASSLQRGVPSRLSGSGSGTDFTLTIDSLQPEDFATYYCQQSYGSPHTFGQGTKVEIK
notes: Human Fab (gamma1 Fd + kappa light chain), tested as a crude periplasmic preparation, approx. 5 ug Fab/ml
B12: Fab clone 2a-23 (Fab, V domains shown)
VH: EVQLLESGAGVVQPGKSLTLSCVGSGFTFSIYAMHWVRQAPGKGLEWVAVLSSDGSNDYYADSVKGRFSIFRDTSKNSLNLLMNNVRGEDTAVYYCARDGDGSFFYWGQGTLVTVSS
VL: B10 VL
notes: Human Fab (gamma1 Fd + kappa), crude periplasmic preparation, approx. 0.50 ug Fab/ml
B13: Fab clone 2a-25 (Fab, V domains shown)
VH: VQLLEQSGAEVKKPGASVKVSCKASGYMFTCYYMHWVRQAPGQGLEWMGMVNPTGGSSSYAQKFQGRVTMTKGHVTSTVYMELSSLRSEDTAVYYCATGMVRGDEWGQGTLVTVSS
VL: AELTQSPSFSSASVGDRVTITCRASHGISSHLAWFQHKPGKAPNLLIYAASTLQSGVPSRFSGSQSGTEFTLTITSLHPEDFATYYCQQLYTWPMGFGQGTRLEIT
notes: Human Fab (gamma1 Fd + kappa), crude periplasmic preparation, approx. 0.11 ug Fab/ml
B14: Fab clone 2a-30 (Fab, V domains shown)
VH: VQLLEQSGGGLVQPGGSLRLSCTASGFTLTDYSMDWVRQAPGKGPEWVGRSRNKANIYTTEYAASVKGRFVISRDDSENSVYLQMNNVKMDDTAVYYCARGEGIFYGSGSLDLWGQGAVVTVSS
VL: AELTQSPSSLSASVGDRVTITCRSSQSISNSLHWFQQEPGKAPKLLIYAASTLQSGVPSRFSGSGSGTDFTLIITGLQPEDFATYYCQQSPRTPLTFGGGTKVEIR
notes: Human Fab (gamma1 Fd + kappa), crude periplasmic preparation, approx. 0.96 ug Fab/ml
B15: Fab clone 2a-32 (Fab, V domains shown)
VH: VQLLEQSGGDLVKPGGSLRLSCAASGFTFTDYYMNWIRQAPGKGLEWIAYISIGSDDTKYAASVKGRFSISRDNAKNSLYLQMNSLRVEDTAVYYCGRGGGYCSGGNCYSSDYWGQGALVTVSS
VL: AELTQSPSSLSAFTGDRVSITCRASQGIGNSLAWYQQKPGHVPKVLIYDASTLSSGAPSRFSGSGSGTDFTLTISGLQPEDVATYYCQKYKSAPLTFGGGTKVEIR
notes: Human Fab (gamma1 Fd + kappa), crude periplasmic preparation, approx. >1 ug Fab/ml
B16: Fab clone 2a-33 (Fab, V domains shown)
VH: VQLLEQSGGGLVQPGRSLRLSCAASGFTFDDYAMHWVRQTPGKGLEWVSGIGWNSGTIEYADSVKGRFTISRDNAKNSLYLQMNSLRPEDTALYYCAKDLHSFGYCSGRSCYFHPFDYWGQGTLVTVSS
VL: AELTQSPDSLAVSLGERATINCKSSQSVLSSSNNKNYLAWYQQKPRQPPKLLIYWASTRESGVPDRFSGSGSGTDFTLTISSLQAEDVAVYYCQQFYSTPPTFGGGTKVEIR
notes: as for B15
B17: Fab clone 2a-37 (Fab, V domains shown)
VH: EVQLLESGGGLVQPGRSLRLSCAASGFTFSNSDMHWVRQAPGKGLEWVTVSSRDGYDNYYADSVRGRFTISRDNSKNTLYLQMNTLRAEDTAVYYCAKRRGYAFDIWGQGTMVTVSS
VL: AELTQSPSSLSASVGDRVTITCRASQSINTYLNWYQQKPGKAPELLIYGASSLQSGVPSRFSGSGSGTDFTLTITSLQAEDFASYFCQQSDSTPRTFGQGTKVEIK
notes: Human Fab (gamma1 Fd + kappa), crude periplasmic preparation, approx. 0.08 ug Fab/ml
B18: Fab clone 2a-40 (Fab, V domains shown)
VH: VQLLEQSGGGLVKPGGSLRLSCTASGFTFSGFTFSDHYMSWIRQAPGKGLELVSYIISNGYTNYPDSVKGRFTVSRDNARKSLYLQMNSLRVEDTAIYYCARGLSPSIAGDGFDIWGQGTMVTVSS
VL: B10 VL
notes: as for B7
B19: Fab clone 2b-1 (Fab, V domains shown)
VH: EVQLLESGPRLVKPSQTLSLTCTVSGDSLNNASHYWAWIRQPAGKGLEWIGRIHRGGSTNYNPSLQSRVTISMDESKNQFSLRLNSVTAADTAVYYCARDPPKAWGPGILVTVSS
VL: AELTQSPSSLSASVGDRVTIACRASQSISNHLNWYQQKPGKAPKVLIYAASSLQSGVPSRFSGSGSGTDFTLTISSLQPEDFAIYYCQQSYSNADFGPGTKVDIK
notes: Human Fab (gamma1 Fd + kappa), crude periplasmic preparation, approx. 0.94 ug Fab/ml
B20: Fab clone 2b-3 (Fab, V domains shown)
VH: EVQLLESGAEVKKPGASVTVSCKASGYSFSDYYIHWVRQAPGQGLEWMGIINPSAGTTTYKQKFQHRVTLTRDTSTNTAYMKLYNLTPDDTAIFFCARGSGGSRSEYDYWGQGTLVTVSS
VL: AELTQSPSSLSASVGDGVTITCRASQSISTYLNWYQQKPGKAPKLLMYAASTLQSGVPSRFSGSGSGTDFTLTISSLQPEDFAAYYCQQARSFPYTFGQGTRLEIR
notes: as for B7
B21: Fab clone 2b-9 (Fab, V domains shown)
VH: LLESGPGLVQPSQTLSLTYAISGDSVSSNSAAWTWIRQSPSRGLEWLGMTYYRSQWYHEYAVSLKSRITINADTSNNQFSLQVNSVTPEDTALYYCARARFVGDTTGYYTFDYWGQGTLVTVSS
VL: AELTQSPGTLSLSPGERGTLSCRASQSVSSSYLAWYQQKAGQAPRLLIYGASSRATGIPDRFSGSGSGTDFTLTISRLEPEDFAVYYCQRYGTSPKTFGQGTKVEFK
notes: Human Fab (gamma1 Fd + kappa), crude periplasmic preparation, approx. 0.19 ug Fab/ml
B22: Fab clone 2b-17 (Fab, V domains shown)
VH: B17 VH
VL: B17 VL
notes: Human Fab (gamma1 Fd + kappa), crude periplasmic preparation, approx. 0.16 ug Fab/ml

Columns and labels:
[1] = biological target: T1, recombinant soluble HCV E1 protein (hepatitis C virus); assay: ELISA, recombinant E1 captured on GNA lectin; crude periplasmic Fab
T1 construct: It is not the cell-surface E1-myc construct (aa 174-359 of H77c) that was used for phage selection; also called recombinant E1; soluble E1 protein

[2] = biological target: T2, recombinant E1/E2 heterodimer protein (genotype 1a) (hepatitis C virus genotype 1a, UniProt P26664 192-383; P26664 384-746, limits assumed); assay: ELISA, E1/E2 heterodimer coated; crude periplasmic Fab
T2 construct: also called E1/E2 in complex; recombinant E1/E2 antigen
T2 sequence (P26664 192-383 limits assumed, chain 1 of 2): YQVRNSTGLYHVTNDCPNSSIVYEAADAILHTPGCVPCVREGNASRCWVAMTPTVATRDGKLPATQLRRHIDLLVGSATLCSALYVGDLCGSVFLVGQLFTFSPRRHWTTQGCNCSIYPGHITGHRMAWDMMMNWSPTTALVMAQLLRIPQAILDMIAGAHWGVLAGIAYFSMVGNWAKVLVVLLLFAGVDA
T2 sequence (P26664 384-746 limits assumed, chain 2 of 2): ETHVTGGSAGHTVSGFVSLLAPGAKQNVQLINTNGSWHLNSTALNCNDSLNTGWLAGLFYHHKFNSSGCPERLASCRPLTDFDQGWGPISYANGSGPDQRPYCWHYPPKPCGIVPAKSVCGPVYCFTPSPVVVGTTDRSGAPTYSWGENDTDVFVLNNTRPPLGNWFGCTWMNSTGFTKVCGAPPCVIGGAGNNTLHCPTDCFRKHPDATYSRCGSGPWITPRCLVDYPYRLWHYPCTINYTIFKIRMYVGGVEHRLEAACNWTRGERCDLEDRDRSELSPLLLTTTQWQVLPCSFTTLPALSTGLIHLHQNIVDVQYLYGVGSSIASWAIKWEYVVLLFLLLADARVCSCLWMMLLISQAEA

| Binder | OD405 nm [1] [OD405 nm] | OD405 nm [2] [OD405 nm] |
| --- | --- | --- |
| B1 | 0.2 | – |
| B2 | 0.75 | 0.53 |
| B3 | 0.96 | 0.67 |
| B4 | 0.2 | 0.12 |
| B5 | 0.97 | 0.2 |
| B6 | 0.15 | 0.09 |
| B7 | 1.18 | – |
| B8 | 0.89 | 0.08 |
| B9 | 1.05 | – |
| B10 | 0.36 | 0.09 |
| B11 | 0.2 | – |
| B12 | 1.47 | – |
| B13 | 1.46 | – |
| B14 | 1.11 | 0.52 |
| B15 | 0.61 | 0.09 |
| B16 | 0.65 | 0.14 |
| B17 | 0.99 | 0.48 |
| B18 | – | 0.17 |
| B19 | 0.35 | 0.12 |
| B20 | 1.18 | 0.19 |
| B21 | 0.33 | – |
| B22 | 0.24 | – |
